B1: purified antigenic protein MF-2 (protein)
chain: EIGSTIPNATFAYVPYSPELEDHKVCGMPTSFQSHERWKGKKVVIVAVPGAFTPTCTANHVPPYVEKIQELKSKGVDEVVVISANDPFVLSAWGITEHAKDNLTFAQDVNCEFSKHFNATLDLSSKGMGLRTARYALIANDLKVEYFGIDEGEPKQSSAATVLSKL
modifications: N-terminus blocked
B2: purified antigenic protein MF-1 (protein)
chain: PGDPTATAKGNEIPDTLMGYIPWTPELDSGEVCGIPTTFKTRDEWKGKKVVIVSIPGAYTPICHQQHIPPLVKRVDELKAKGVDAVYVIASNDPFVMAAWGNFNNAKDKVVFATDIDLAFSKALGATIDLSAKHFGERTARYALIIDDNKIVDFASDEGDTGKLQNASIDTILTKV

How the values were obtained:
[1] = biological target: IgE antibodies in pooled sera from patients (collection of sera from 10 patients showing high values in RAST method); assay: RAST cross inhibition, pooled patient sera; competitor: MF-1 immobilised on solid phase
[2] = biological target: IgE antibodies in pooled sera from patients (collection of sera from 10 patients showing high values in RAST method); assay: RAST cross inhibition, pooled patient sera; competitor: MF-2 immobilised on solid phase
[3] = biological target: IgE antibodies in pooled sera from patients (collection of sera from 10 patients showing high values in RAST method); assay: RAST cross inhibition, pooled patient sera; competitor: MF-4 immobilised on solid phase

| Binder | IC50 [1] [µg/mL] | relative concentration for 50% inhibition (in brackets; homologous antigen = 1) [1] | IC50 [2] [µg/mL] | relative concentration for 50% inhibition (in brackets; homologous antigen = 1) [2] | IC50 [3] [µg/mL] | relative concentration for 50% inhibition (in brackets; homologous antigen = 1) [3] |
| --- | --- | --- | --- | --- | --- | --- |
| B1 | 8.6 | 230 | 0.013 | 1 | 30 | 480 |
| B2 | 0.038 | 1 | > 100 | > 7700 | 18 | 290 |

— US20030105283A1
